Data taken from patent US20250388676A1 (Sanofi, published 2025).
Changes are numbered by the printed parent chain. One block for each binder: values may come before it.

Columns and labels:
cynomolgus PD-1 [1] = molecular target: T1, cynomolgus PD-1 (cynomolgus monkey); assay: flow cytometry on pre-B 300.19 cells expressing cyno PD-1, detection with anti-human IgG Fc F(ab')2 [panel B]
T1 construct: whole, on cells; also called cyno PD-1; cyPD-1

human PD-1 [2] = molecular target: T2, human PD-1 (human, UniProt Q15116 25-288); assay: flow cytometry on pre-B 300.19 cells expressing human PD-1, detection with anti-human IgG Fc F(ab')2 [panel A]
T2 construct: On pre-B 300.19 cells stably expressing human PD-1, on NFAT-RE/PD-1 Jurkat reporter cells and on T cells of hGITR/hPD-1 knock-in mice; also called hPD-1; PD1 (on reporter cells)
T2 sequence (Q15116 25-288 limits assumed): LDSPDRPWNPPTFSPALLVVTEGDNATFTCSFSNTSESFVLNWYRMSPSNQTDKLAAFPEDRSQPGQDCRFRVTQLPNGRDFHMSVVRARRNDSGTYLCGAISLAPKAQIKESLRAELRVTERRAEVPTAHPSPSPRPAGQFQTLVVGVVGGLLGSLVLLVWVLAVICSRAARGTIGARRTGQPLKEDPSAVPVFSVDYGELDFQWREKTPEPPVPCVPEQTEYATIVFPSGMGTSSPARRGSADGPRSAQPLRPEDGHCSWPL

human PD-1 [3] = molecular target: T2, human PD-1; assay: receptor occupancy by flow cytometry on activated splenic CD4+ T cells of hGITR/hPD-1 KI mice; free PD-1 detected with competing Anti-hPD-1-BV421, total PD-1 with non-competing Anti-hPD-1 NANOBODY-A647 [panel A]
Excerpt: (§1) Anti-hGITR NANOBODY®-A488 as non-competing agent detecting total GITR Activated T cells were then washed and analyzed on a Cytek® Aurora flow cytometer.

human PD-1 [4] = molecular target: T2, human PD-1; assay: receptor occupancy by flow cytometry on activated splenic CD8+ T cells of hGITR/hPD-1 KI mice; free PD-1 detected with competing Anti-hPD-1-BV421, total PD-1 with non-competing Anti-hPD-1 NANOBODY-A647 [panel A]
Excerpt: as §1

human GITR [5] = molecular target: T3, human GITR (human, UniProt Q9Y5U5 26-241); assay: receptor occupancy by flow cytometry on activated splenic CD8+ T cells of hGITR/hPD-1 KI mice; free GITR detected with competing Anti-hGITR-BV605, total GITR with non-competing Anti-hGITR NANOBODY-A488 [panel B]
T3 construct: whole, on cells; also called hGITR; TNFRSF18
T3 sequence (looked up): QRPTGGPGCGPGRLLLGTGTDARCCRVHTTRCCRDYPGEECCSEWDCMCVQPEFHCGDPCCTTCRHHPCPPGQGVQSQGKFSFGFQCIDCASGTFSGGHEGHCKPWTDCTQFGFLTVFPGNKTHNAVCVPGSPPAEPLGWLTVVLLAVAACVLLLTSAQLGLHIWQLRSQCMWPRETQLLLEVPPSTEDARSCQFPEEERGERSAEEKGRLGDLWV
Excerpt: as §1

human GITR [6] = molecular target: T3, human GITR; assay: flow cytometry on NFkB-NlucP/HEK293 cells expressing human GITR, anti-human IgG Fc detection, 4PL fit
Description: (§2) Binding properties of the bispecific molecules and controls to multiple targets expressed on cell surfaces were evaluated with flow cytometry. […] Cell suspensions were analyzed with iQue Screener 3 (Sartorius, Intellicyt). In each washing step, plates were centrifuged for 2 minutes at 300×g at 4° C., supernatants discarded and buffer dispensed by Biotek ELX405 microplate washer (BioTek). Other reagents were added either manually or with ViaFlo (Integra). EC50s were estimated by dose response modelling. Curves were fit using 4 parameter logistic regression in GraphPad (GraphPad Software Inc.).

cynomolgus GITR [7] = molecular target: T4, cynomolgus GITR (cynomolgus monkey); assay: flow cytometry on NFkB-NlucP/HEK293 cells expressing cyno GITR, anti-human IgG Fc detection, 4PL fit
T4 construct: whole, on cells; also called cyno GITR; cyGITR
Description: as §2

human PD-1 [8] = molecular target: T2, human PD-1; assay: flow cytometry on pre-B 300.19 cells expressing human PD-1, anti-human IgG Fc detection, 4PL fit
Description: as §2

human PD-1 [9] = molecular target: T2, human PD-1; assay: cell-based or functional assay
cynomolgus GITR [10] = molecular target: T4, cynomolgus GITR; assay: cell-based or functional assay
human GITR [11] = molecular target: T3, human GITR; assay: cell-based or functional assay
cynomolgus PD-1 [12] = molecular target: T1, cynomolgus PD-1; assay: flow cytometry on pre-B 300.19 cells expressing cyno PD-1, anti-human IgG Fc detection, 4PL fit
Description: as §2

human GITR [13] = molecular target: T3, human GITR; assay: receptor occupancy by flow cytometry on activated splenic CD4+ T cells of hGITR/hPD-1 KI mice; free GITR detected with competing Anti-hGITR-BV605, total GITR with non-competing Anti-hGITR NANOBODY-A488 [panel B]
Excerpt: as §1

- EC50 (read off the curve) (cynomolgus PD-1 [1]): ~0.4 nM
- EC50 (read off the curve) (human PD-1 [2]): ~0.2 nM
- EC50 (read off the curve) (human PD-1 [3]): ~0.4 nM
- EC50 (read off the curve) (human PD-1 [4]): ~0.3 nM
B1: GITRLmut/anti-PD-1 mAb2 (antibody, V domains shown)
VH: QLQLQESGPGLVKPSETLSLTCTVSGGSISSSSYFWGWIRQPPGKGLEWIGSIYRSGSTYYNPSLKSRVTISVDTSKNQFSLKLSSVTAADTAVYYCARGITGDPGDYWGQGTLVTVSS
VL: EIVLTQSPATLSLSPGERATLSCGASQSVPINFLAWYQQKPGLAPRLLIYEASSRHTGIPDRFSGSGSGTDFTLTISRLEPEDFAVYYCGQYGSSPYTFGQGTKLEIK

- EC50 (read off the curve) (cynomolgus PD-1 [1]): ~0.5 nM
- EC50 (read off the curve) (human PD-1 [2]): ~0.3 nM
B2: GITRLmut/anti-PD-1 mAb1 (antibody, V domains shown)
VH: B1 VH with S31T
VL: B1 VL with P30S, H56A, G90Q

- EC50 (read off the curve) (human GITR [5]): ~0.2 nM
- EC50 (human GITR [6]): 0.034 nM
- EC50 (cynomolgus GITR [7]): 0.034 nM
- EC50 (human PD-1 [8]): 0.24 nM
- hPD-1 IC50 (reporter assay) (human PD-1 [9]): 0.5 nM
- cyGITR EC50 (reporter assay) (cynomolgus GITR [10]): 0.0083 nM
- hGITR EC50 (reporter assay) (human GITR [11]): 0.0077 nM
- EC50 (cynomolgus PD-1 [12]): 0.37 nM
- EC50 (read off the curve) (human PD-1 [3]): ~0.03 nM
- EC50 (read off the curve) (human GITR [13]): ~0.2 nM
- EC50 (read off the curve) (human PD-1 [4]): ~0.03 nM
B3: GITRL/anti-PD-1 mAb2 (bispecific antibody, human IgG1, kappa, L234A L235A)
heavy: not shown
light: EIVLTQSPATLSLSPGERATLSCGASQSVPINFLAWYQQKPGLAPRLLIYEASSRHTGIPDRFSGSGSGTDFTLTISRLEPEDFAVYYCGQYGSSPYTFGQGTKLEIKRTVAAPSVFIFPPSDEQLKSGTASVVCLLNNFYPREAKVQWKVDNALQSGNSQESVTEQDSKDSTYSLSSTLTLSKADYEKHKVYACEVTHQGLSSPVTKSFNRGEC
notes: Single-chain GITRL trimer inserted between VH and CH1 of each heavy chain; bivalent for PD-1, hexavalent for GITR; also called GITRL trimer/anti-PD-1 mAb2; single-chain GITRL trimer/anti-PD-1 mAb2

- EC50 (human GITR [6]): 0.014 nM
- EC50 (cynomolgus GITR [7]): 0.014 nM
- EC50 (human PD-1 [8]): 0.33 nM
- hPD-1 IC50 (reporter assay) (human PD-1 [9]): 0.56 nM
- cyGITR EC50 (reporter assay) (cynomolgus GITR [10]): 0.01 nM
- hGITR EC50 (reporter assay) (human GITR [11]): 0.0087 nM
- EC50 (cynomolgus PD-1 [12]): 0.58 nM
B4: GITRL/anti-PD-1 mAb1 (bispecific antibody, human IgG1, kappa, L234A L235A)
heavy: not shown
light: B3 light with P30S, H56A, G90Q
notes: Single-chain GITRL trimer inserted between VH and CH1 of each heavy chain; bivalent for PD-1, hexavalent for GITR; also called GITRL trimer/anti-PD-1 mAb1; single-chain GITRL trimer/anti-PD-1 mAb1
